# Test results taken from patent publication US20190270826A1 (Janssen / Centocor, published 2019).
# B1: IC3B8 (bispecific antibody, human IgG4 S228P, kappa, lambda, F234A L235A)
# heavy 1: EVQLVESGGGLVQPGGSLKLSCAASGFTFNTYAMNWVRQASGKGLEWVGRIRSKYNAYATYYAASVKGRFTISRDDSKNTAYLQMNSLKTEDTAVYYCTRHGNFGNSYVSWFAYWGQGTLVTVSSASTKGPSVFPLAPCSRSTSESTAALGCLVKDYFPEPVTVSWNSGALTSGVHTFPAVLQSSGLYSLSSVVTVPSSSLGTKTYTCNVDHKPSNTKVDKRVESKYGPPCPPCPAPEAAGGPSVFLFPPKPKDTLMISRTPEVTCVVVDVSQEDPEVQFNWYVDGVEVHNAKTKPREEQFNSTYRVVSVLTVLHQDWLNGKEYKCKVSNKGLPSSIEKTISKAKGQPREPQVYTLPPSQEEMTKNQVSLTCLVKGFYPSDIAVEWESNGQPENNYKTTPPVLDSDGSFLLYSKLTVDKSRWQEGNVFSCSVMHEALHNHYTQKSLSLSLGK
# light 1: QAVVTQEPSLTVSPGGTVTLTCRSSTGAVTTSNYANWVQQKPGQAPRGLIGGTNKRAPGTPARFSGSLLGGKAALTLSGAQPEDEAEYYCALWYSNLWVFGGGTKLTVLGQPKAAPSVTLFPPSSEELQANKATLVCLISDFYPGAVTVAWKADSSPVKAGVETTTPSKQSNNKYAASSYLSLTPEQWKSHRSYSCQVTHEGSTVEKTVAPTECS
# heavy 2: not shown
# light 2: not shown
# notes: IgG4-PAA, Fab arm exchange; also called IAPB23 x CD3B220
# B2: IC3B12 (bispecific antibody, human IgG4 S228P, kappa, lambda, F234A L235A)
# heavy 1: EVQLVESGGGLVQPGGSLKLSCAASGFTFNTYAMNWVRQASGKGLEWVGRIRSKYNAYATYYAASVKGRFTISRDDSKNTAYLQMNSLKTEDTAVYYCTRHGNFGNSYVSWFAYWGQGTLVTVSSASTKGPSVFPLAPCSRSTSESTAALGCLVKDYFPEPVTVSWNSGALTSGVHTFPAVLQSSGLYSLSSVVTVPSSSLGTKTYTCNVDHKPSNTKVDKRVESKYGPPCPPCPAPEAAGGPSVFLFPPKPKDTLMISRTPEVTCVVVDVSQEDPEVQFNWYVDGVEVHNAKTKPREEQFNSTYRVVSVLTVLHQDWLNGKEYKCKVSNKGLPSSIEKTISKAKGQPREPQVYTLPPSQEEMTKNQVSLTCLVKGFYPSDIAVEWESNGQPENNYKTTPPVLDSDGSFLLYSKLTVDKSRWQEGNVFSCSVMHEALHNHYTQKSLSLSLGK
# light 1: QAVVTQEPSLTVSPGGTVTLTCRSSTGAVTTSNYANWVQQKPGQAPRGLIGGTNKRAPGTPARFSGSLLGGKAALTLSGAQPEDEAEYYCALWYSNLWVFGGGTKLTVLGQPKAAPSVTLFPPSSEELQANKATLVCLISDFYPGAVTVAWKADSSPVKAGVETTTPSKQSNNKYAASSYLSLTPEQWKSHRSYSCQVTHEGSTVEKTVAPTECS
# heavy 2: not shown
# light 2: not shown
# notes: IgG4-PAA, Fab arm exchange; also called IAPB55 x CD3B220
# B3: IC3B13 (bispecific antibody, human IgG4 S228P, lambda, F234A L235A)
# heavy 1: EVQLVESGGGLVQPGGSLKLSCAASGFTFNTYAMNWVRQASGKGLEWVGRIRSKYNAYATYYAASVKGRFTISRDDSKNTAYLQMNSLKTEDTAVYYCTRHGNFGNSYVSWFAYWGQGTLVTVSSASTKGPSVFPLAPCSRSTSESTAALGCLVKDYFPEPVTVSWNSGALTSGVHTFPAVLQSSGLYSLSSVVTVPSSSLGTKTYTCNVDHKPSNTKVDKRVESKYGPPCPPCPAPEAAGGPSVFLFPPKPKDTLMISRTPEVTCVVVDVSQEDPEVQFNWYVDGVEVHNAKTKPREEQFNSTYRVVSVLTVLHQDWLNGKEYKCKVSNKGLPSSIEKTISKAKGQPREPQVYTLPPSQEEMTKNQVSLTCLVKGFYPSDIAVEWESNGQPENNYKTTPPVLDSDGSFLLYSKLTVDKSRWQEGNVFSCSVMHEALHNHYTQKSLSLSLGK
# light 1: QAVVTQEPSLTVSPGGTVTLTCRSSTGAVTTSNYANWVQQKPGQAPRGLIGGTNKRAPGTPARFSGSLLGGKAALTLSGAQPEDEAEYYCALWYSNLWVFGGGTKLTVLGQPKAAPSVTLFPPSSEELQANKATLVCLISDFYPGAVTVAWKADSSPVKAGVETTTPSKQSNNKYAASSYLSLTPEQWKSHRSYSCQVTHEGSTVEKTVAPTECS
# heavy 2: not shown
# light 2: QSALTQPRSVSGSPGHSVTISCTGTSSDVGDYNYVSWYQQRPGKVPKLLIYDVSKRPSGVPDRFSGSKSGNTASLTISGLQAEDEAIYFCASYAGNYNVVFGGGTKLTVLGQPKAAPSVTLFPPSSEELQANKATLVCLISDFYPGAVTVAWKADSSPVKAGVETTTPSKQSNNKYAASSYLSLTPEQWKSHRSYSCQVTHEGSTVEKTVAPTECS
# notes: IgG4-PAA, Fab arm exchange; also called IAPB63 x CD3B220
# B4: IC3B14 (bispecific antibody, human IgG4 S228P, lambda, F234A L235A)
# heavy 1: EVQLVESGGGLVQPGGSLKLSCAASGFTFNTYAMNWVRQASGKGLEWVGRIRSKYNAYATYYAASVKGRFTISRDDSKNTAYLQMNSLKTEDTAVYYCTRHGNFGNSYVSWFAYWGQGTLVTVSSASTKGPSVFPLAPCSRSTSESTAALGCLVKDYFPEPVTVSWNSGALTSGVHTFPAVLQSSGLYSLSSVVTVPSSSLGTKTYTCNVDHKPSNTKVDKRVESKYGPPCPPCPAPEAAGGPSVFLFPPKPKDTLMISRTPEVTCVVVDVSQEDPEVQFNWYVDGVEVHNAKTKPREEQFNSTYRVVSVLTVLHQDWLNGKEYKCKVSNKGLPSSIEKTISKAKGQPREPQVYTLPPSQEEMTKNQVSLTCLVKGFYPSDIAVEWESNGQPENNYKTTPPVLDSDGSFLLYSKLTVDKSRWQEGNVFSCSVMHEALHNHYTQKSLSLSLGK
# light 1: QAVVTQEPSLTVSPGGTVTLTCRSSTGAVTTSNYANWVQQKPGQAPRGLIGGTNKRAPGTPARFSGSLLGGKAALTLSGAQPEDEAEYYCALWYSNLWVFGGGTKLTVLGQPKAAPSVTLFPPSSEELQANKATLVCLISDFYPGAVTVAWKADSSPVKAGVETTTPSKQSNNKYAASSYLSLTPEQWKSHRSYSCQVTHEGSTVEKTVAPTECS
# heavy 2: not shown
# light 2: QSALTQPRSVSGSPGHSVTISCTGTSSDVGDYNYVSWYQQRPGKVPKLLIYDVSKRPSGVPDRFSGSKSGNTASLTISGLQAEDEAIYFCSSYAGNYNVVFGGGTKLTVLGQPKAAPSVTLFPPSSEELQANKATLVCLISDFYPGAVTVAWKADSSPVKAGVETTTPSKQSNNKYAASSYLSLTPEQWKSHRSYSCQVTHEGSTVEKTVAPTECS
# notes: IgG4-PAA, Fab arm exchange; also called IAPB64 x CD3B220
# What was measured:
# [1] = target: T1, recombinant cyno IL1RAP ECD (cynomolgus monkey, UniProt P59822 21-367 (rhesus entry)); assay: SPR
# T1 construct: also called rcynoIL1RAP
# T1 sequence: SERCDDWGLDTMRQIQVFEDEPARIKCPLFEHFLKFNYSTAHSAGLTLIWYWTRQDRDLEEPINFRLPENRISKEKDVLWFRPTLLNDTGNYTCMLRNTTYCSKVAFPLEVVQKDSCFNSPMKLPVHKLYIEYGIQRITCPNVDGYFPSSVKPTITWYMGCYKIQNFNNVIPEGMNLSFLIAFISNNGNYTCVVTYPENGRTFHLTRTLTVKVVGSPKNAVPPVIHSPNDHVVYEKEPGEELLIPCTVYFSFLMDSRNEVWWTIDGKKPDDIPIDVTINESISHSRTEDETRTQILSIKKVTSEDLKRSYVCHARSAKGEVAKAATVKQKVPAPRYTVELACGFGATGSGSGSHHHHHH
# [2] = target: T1, recombinant cyno IL1RAP ECD; assay: SPR; remark: listed apart in the source
# [3] = target: T2, recombinant human IL1RAP ECD (human, UniProt Q9NPH3 21-367); assay: SPR
# T2 construct: His-tagged; also called hIL1RAP-ECD; rhuIL1RAP
# T2 sequence: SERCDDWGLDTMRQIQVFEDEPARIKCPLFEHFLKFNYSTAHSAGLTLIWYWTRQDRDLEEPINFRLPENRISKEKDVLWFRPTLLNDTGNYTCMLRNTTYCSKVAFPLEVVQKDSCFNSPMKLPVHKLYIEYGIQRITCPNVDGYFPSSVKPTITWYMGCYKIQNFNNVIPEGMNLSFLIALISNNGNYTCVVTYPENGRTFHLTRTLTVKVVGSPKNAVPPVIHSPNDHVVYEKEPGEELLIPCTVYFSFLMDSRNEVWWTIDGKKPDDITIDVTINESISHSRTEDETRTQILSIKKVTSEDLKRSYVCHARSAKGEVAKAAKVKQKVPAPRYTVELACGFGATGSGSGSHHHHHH
# [4] = target: T2, recombinant human IL1RAP ECD; assay: SPR; human KD over cyno KD
# [5] = target: T1, recombinant cyno IL1RAP ECD; assay: SPR, summary
# [6] = target: T2, recombinant human IL1RAP ECD; assay: SPR, summary
# [7] = target: T2, recombinant human IL1RAP ECD; assay: SPR; remark: listed apart in the source
# [8] = target: T3, human IL1RAP on cells (endogenous) (human, UniProt Q9NPH3 21-570); assay: cell-based or functional assay
# T3 sequence (looked up): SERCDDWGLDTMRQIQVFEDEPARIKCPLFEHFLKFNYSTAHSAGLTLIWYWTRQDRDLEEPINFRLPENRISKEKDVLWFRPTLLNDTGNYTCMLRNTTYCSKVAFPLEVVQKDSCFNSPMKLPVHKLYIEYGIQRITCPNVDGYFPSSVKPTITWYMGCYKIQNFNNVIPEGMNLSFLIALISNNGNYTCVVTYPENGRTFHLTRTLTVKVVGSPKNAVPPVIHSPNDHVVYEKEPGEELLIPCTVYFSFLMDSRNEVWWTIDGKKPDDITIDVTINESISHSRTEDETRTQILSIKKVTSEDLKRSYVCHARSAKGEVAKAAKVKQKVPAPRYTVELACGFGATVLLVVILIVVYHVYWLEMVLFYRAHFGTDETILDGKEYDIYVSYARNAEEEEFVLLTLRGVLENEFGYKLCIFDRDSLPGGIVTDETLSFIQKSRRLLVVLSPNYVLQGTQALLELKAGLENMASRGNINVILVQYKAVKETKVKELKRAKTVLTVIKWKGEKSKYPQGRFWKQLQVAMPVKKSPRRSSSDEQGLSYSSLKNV
Binder,Kd [1] [nM],koff [1] [s⁻¹],kon [1] [M⁻¹ s⁻¹],Kd [2] [nM],Kd [3] [nM],Hu/Cyno KD Ratio [4],Kd [5] [nM],Kd [6] [nM],Kd [7] [nM],koff [7] [s⁻¹],kon [7] [M⁻¹ s⁻¹],"EC50, T-cell mediated cytotoxicity [8] [nM]"
B1,2.7,0.00121,448000,2.7,9.96,3.7,2.7,9.96,9.96,0.00298,300000,0.138
B2,0.218,0.000331,1.52e+06,0.218,0.313,1.4,0.218,0.313,0.313,0.000361,1.15e+06,1.3
B3,0.451,0.000532,1.18e+06,0.451,0.122,0.3,0.451,0.122,0.122,0.000114,938000,0.054
B4,0.993,0.000858,864000,0.993,0.246,0.2,0.993,0.246,0.246,0.000171,695000,0.1
